Laboratory results: patent US20050214830A1, “G protein-binding proteins and polynucleotides encoding the same” (Wyeth, priority 1998, published 2005)

Experiments:
rat Gαi2 = target: T1, rat Gαi2 (Rattus norvegicus, UniProt P04897); test: Yeast 2-hybrid (Y2H) bioassay for BBP interaction with Gαi2; settings: BBP intracellular loop as Gal4 DNA-binding domain fusion; C-terminal region of Gα as Gal4 activation domain fusion; compared to vector
T1 construct: fusion proteins containing C-terminal regions of Gα proteins in Y2H assays; expressed in transfected cells; host or cells: yeast strain CY770, plasmid pACT2
T1 sequence (P04897 213-355 limits assumed): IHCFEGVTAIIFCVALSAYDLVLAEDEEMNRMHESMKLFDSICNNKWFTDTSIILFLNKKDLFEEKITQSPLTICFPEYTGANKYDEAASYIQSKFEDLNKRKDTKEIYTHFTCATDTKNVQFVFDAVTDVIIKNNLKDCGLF
Excerpt: (§1) Yeast 2-hybrid assays. Y2H expression plasmids were constructed in the vectors pAS2 and pACT2 (Wade Harper et al., 1993). Strain CY770 (Ozenberger and Young, 1995) served as the host for Y2H assays. Sequences encoding the BBPI intracellular loop were amplified using the oligonucleotides 5′-CCTTCC ATGGAAGTGGCAGTCGCATTGTCT [SEQ ID NO:24] plus 5′-AACACTCGAG TCAAAACCCTACAGTGCAAAAC [SEQ ID NO:25]. This product, containing BBP1 codons 185 to 217, was digested with NcoI+XhoI and cloned into pAS2 cleaved with NcoI+SaII to generate pOZ339. Sequences encoding the BBP2 intracellular loop were amplified using the oligonucleotides 5′-CCATG GCCACTTTACTCTACTCCTTCTT [SEQ ID NO:26] plus 5′-CTCGAG TCA AAT CCC MG TCC TCC MG CG [SEQ ID NO:27]. […]
(§2) The various combinations of plasmids were transformed into strain CY770 by standard protocols. […] Cells were concentrated by centrifugation, counted and 10-fold serial dilutions made from 10^4 to 10^8 cells per ml in sterile water. […]
(§3) BBP1 contains a structural motif known to be a Gα protein activating sequence in the related G protein-coupled receptors. The intracellular sequences of each BBP were expressed as fusion proteins and assayed. for physical interactions with fusion proteins containing C-terminal regions of Gα proteins in Y2H assays.

rat Gαs = target: T2, rat Gαs (Rattus norvegicus, UniProt P63095); test: Yeast 2-hybrid (Y2H) bioassay for BBP interaction with Gαs; settings: BBP intracellular loop as Gal4 DNA-binding domain fusion; C-terminal region of Gα as Gal4 activation domain fusion; compared to vector
T2 construct: fusion proteins containing C-terminal regions of Gα proteins in Y2H assays; expressed in transfected cells; host or cells: yeast strain CY770, plasmid pACT2
T2 sequence (P63095 235-394 limits assumed): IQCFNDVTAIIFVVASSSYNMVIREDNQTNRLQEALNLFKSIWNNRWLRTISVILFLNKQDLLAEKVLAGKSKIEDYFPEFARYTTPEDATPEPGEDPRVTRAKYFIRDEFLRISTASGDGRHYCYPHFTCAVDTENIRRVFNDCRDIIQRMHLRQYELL
Excerpt: as §1, §2, §3

[1] = tested on: Human Ntera2 (Nt2) stem cells; test: Staurosporine-induced nuclear condensation (apoptosis) in transfected Nt2 stem cells; format: cell-based
Excerpt: Mammalian expression plasmids. BBP cDNAs were modified by polymerase chain reaction (PCR) for expression from the vector pcDNA3.1 (Invitrogen Corp., Carlsbad, Calif.). BBP1 cDNA was amplified from pBBP1-fl (ATCC #98617); from the third potential translation start site to the translation stop codon, adding a 5′ EcoRI and a 3′ SaII site for cloning. The BBP1 cDNA contains three potential translation starts (codons 1, 30, and 63). The third start site was chosen for the described experiments because the first two potential initiating codons lack appropriate sequence context for efficient translation initiation (see Kozak, 1996), and based on similarities of the protein derived from the third start site with a putative BBP1 orthologue from Drosophila melanogaster (Genbank accession M941984). FIG. 1 depicts this minimal BBP1 translation product to optimize the alignment with the other BBP subtypes. The PCR primers were 5′-TGGTGAATTC GAAAGTGTCG GTCTCAACG ATG G [SEQ ID NO:36] (+strand) and 5′-CTTCGTCGAC TTATGGATATAATTGCGTTTTTC [SEQ ID NO:37] (−strand). The PCR product was digested with EcoRI+SaII and cloned into pcDNA3.1/EcoRI−XhoI to create pOZ363. BBP2 and BBP3 expression plasmids were similarily engineered. BBP2 was amplified from pOZ359 (ATCC #98851; using primers 5′-TTCCGAATTC AAGATGGTGCTAGGTGGTTGCCC [SEQ ID NO:38] (+strand) plus 5′-TTCCCTCGAG TTAGTAAACAGTGCACCAGTTGC [SEQ ID NO:39] (−strand). The PCR product was digested with EcoRI+XhoI and cloned into pcDNA3.1/EcoRI−XhoI to create pFL1 1. BBP3 was amplified from pOZ350 (ATCC #98712 using primers 5′-TTTTGAATTC GCAAG ATG GCG GGA GGG GTG CGC [SEQ ID NO:40] (+strand) plus 5′-TTGGCTCGAG CTAAATGTACAAAGAGCCATCTG [SEQ ID NO:41] (−strand). The PCR product was digested with EcoRI+XhoI and cloned into pcDNA3.1/EcoRI−XhoI to create pFL12. Mutation of the arginine codon within the ‘DRF’ motif of each BBP cDNA was performed using the QuickChange system (Stratagene Co., La Jolla, Calif.). Oligonucleotides were synthesized and purified by Genosys Biotechnologies, Inc. (The Woodlands, Tex.). The R138 codon of BBP1 in pOZ363 was changed to an alanine codon using the oligonucleotide 5′-GG TTGGGAGCAGATGCATTTTACCTTGGATACCC [SEQ ID NO: 42] and its exact reverse complement. The changed nucleotides are underlined. The R138 position of BBP1 in pOZ363 was changed to E using the oligonucleotide 5′-GG TTGGGAGCAGATGAATTTTACCTTGGATACCC [SEQ ID NO:43] and its exact reverse complement. The R167 position of BBP2 in pFL11 was changed to E using the oligonucleotide 5′-CTGGGATGTTTTGGTGTGGAT GM TTC TGT TTG GGA CAC AC [SEQ ID NO:44] and its exact reverse complement. […]

rat Gαo = target: T3, rat Gαo (Rattus norvegicus, UniProt P59215); test: Yeast 2-hybrid (Y2H) bioassay for BBP interaction with Gαo; settings: BBP intracellular loop as Gal4 DNA-binding domain fusion; C-terminal region of Gα as Gal4 activation domain fusion; compared to vector
T3 construct: fusion proteins containing C-terminal regions of Gα proteins in Y2H assays; expressed in transfected cells; host or cells: yeast strain CY770, plasmid pACT2
T3 sequence (P59215 213-354 limits assumed): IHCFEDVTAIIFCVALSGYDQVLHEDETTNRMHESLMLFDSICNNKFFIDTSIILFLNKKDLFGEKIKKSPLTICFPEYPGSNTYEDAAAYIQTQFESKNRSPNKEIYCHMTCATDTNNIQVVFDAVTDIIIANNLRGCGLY
Excerpt: as §1, §2, §3

[2] = recombinant expression in Nt2 stem cells, 100 nM staurosporine for 3 hrs

B1: BBP1: novel BAP binding protein, SEQ ID NO:2; two-transmembrane protein with 'DRF' motif; expressed from pOZ363 (protein, listed as Homo sapiens)
chain: MHILKGSPNVIPRAHGQKNTRRDGTGLYPMRGPFKNLALLPFSLPLLGGGGSGSGEKVSVSKMAAAWPSGPSAPEAVTARLVGVLWFVSVTTGPWGAVATSAGGEESLKCEDLKVGQYICKDPKINDATQEPVNCTNYTAHVSCFPAPNITCKDSSGNETHFTGNEVGFFKPISCRNVNGYSYKVAVALSLFLGWLGADRFYLGYPALGLLKFCTVGFCGIGSLIDFILISMQIVGPSDGSSYIIDYYGTRLTRLSITNETFRKTQLYP
- physical interaction with Gαi (Y2H growth response) (rat Gαi2): interacted with all three Gα proteins
- physical interaction with Gαs (Y2H growth response) (rat Gαs): interacted with all three Gα proteins
- cell death induced by staurosporine ([1]; Nt2 transfectants, 24 hr treatment with staurosporine (data not shown)): blocked cell death
- apoptosis (percentage of condensed nuclei among EGFP+ transfectants) ([1]; recombinant expression in Nt2 stem cells, 100 nM staurosporine for 3 hrs, controls 45%): 13.5%
- physical interaction with Gαo (Y2H growth response) (rat Gαo): interacted with all three Gα proteins

B2: BBP3: 221 amino acid BBP family protein (short form), SEQ ID NO:6; expressed from pFL12 (protein, listed as Homo sapiens)
chain: MAGGVRPLRGLRALCRVLLFLSQFCILSGGESTEIPPYVMKCPSNGLCSRLPADCIDCTTNFSCTYGKPVTFDCAVKPSVTCVDQDFKSQKNFIINMTCRFCWQLPETDYECTNSTSCMTVSCPRQRYPANCTVRDHVHCLGNRTFPKMLYCNWTGGYKWSTALALSITLGGFGADRFYLGQWREGLGKLFSFGGLGIWTLIDVLLIGVGYVGPADGSLYI
- physical interaction with Gαi (Y2H growth response) (rat Gαi2): exhibited interaction
- physical interaction with Gαs (Y2H growth response) (rat Gαs): strong response
- suppression of staurosporine-induced nuclear condensation (antiapoptotic activity), in words [1, 2]: suppressed the induction of nuclear condensation to the same levels as BBP1
- physical interaction with Gαo (Y2H growth response) (rat Gαo): none

B3: 5HT-R: 7-tm domain G protein-coupled serotonin receptor expressed as control in the apoptosis assay (protein, UniProt P08908 1-422, looked up)
5-hydroxytryptamine receptor …: MDVLSPGQGNNTTSPPAPFETGGNTTGISDVTVSYQVITSLLLGTLIFCAVLGNACVVAAIALERSLQNVANYLIGSLAVTDLMVSVLVLPMAALYQVLNKWTLGQVTCDLFIALDVLCCTSSILHLCAIALDRYWAITDPIDYVNKRTPRRAAALISLTWLIGFLISIPPMLGWRTPEDRSDPDACTISKDHGYTIYSTFGAFYIPLLLMLVLYGRIFRAARFRIRKTVKKVEKTGADTRHGASPAPQPKKSVNGESGSRNWRLGVESKAGGALCANGAVRQGDDGAALEVIEVHRVGNSKEHLPLPSEAGPTPCAPASFERKNERNAEAKRKMALARERKTVKTLGIIMGTFILCWLPFFIVALVLPFCESSCHMPTLLGAIINWLGYSNSLLNPVIYAYFNKDFQNAFKKIIKCKFCRQ
- suppression of staurosporine-induced nuclear condensation (antiapoptotic activity), in words [1, 2]: had no effect
